From paper PMC10403576, “The Ycf48 accessory factor occupies the site of the oxygen-evolving manganese cluster during photosystem II biogenesis” (Nature Communications, 2023) come the findings set out here.

One test concerns the target T1, PsaI subunit of PSI (Synechocystis sp. PCC 6803, UniProt Q55330 1-40).
T1 construct: PsaI of Synechocystis sp; PCC 6803; source: endogenous, Synechocystis sp; PCC 6803 strain His-D2/ΔCP47; co-purified with His-tagged D2 (Ni-NTA, sucrose gradient)
T1 chain (looked up): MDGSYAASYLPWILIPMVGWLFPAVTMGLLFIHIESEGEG
In words: cryo-EM structure; RCII/PSI complex co-purified from Synechocystis via His-tagged D2; 0.1% FOM; two classes at 3.2 Å and 3.1 Å, PSI-focused map at 2.9 Å. The note with it: both partners purified.

The next test deals with T2, PsaB RC subunit of PSI (Synechocystis sp. PCC 6803, UniProt P29255 1-731).
T2 construct: PsaB of Synechocystis sp; PCC 6803; source: endogenous, Synechocystis sp; PCC 6803 strain His-D2/ΔCP47; co-purified with His-tagged D2 (Ni-NTA, sucrose gradient)
Described as above. The note with it: both partners purified.

T2 sequence (P29255 whole entry): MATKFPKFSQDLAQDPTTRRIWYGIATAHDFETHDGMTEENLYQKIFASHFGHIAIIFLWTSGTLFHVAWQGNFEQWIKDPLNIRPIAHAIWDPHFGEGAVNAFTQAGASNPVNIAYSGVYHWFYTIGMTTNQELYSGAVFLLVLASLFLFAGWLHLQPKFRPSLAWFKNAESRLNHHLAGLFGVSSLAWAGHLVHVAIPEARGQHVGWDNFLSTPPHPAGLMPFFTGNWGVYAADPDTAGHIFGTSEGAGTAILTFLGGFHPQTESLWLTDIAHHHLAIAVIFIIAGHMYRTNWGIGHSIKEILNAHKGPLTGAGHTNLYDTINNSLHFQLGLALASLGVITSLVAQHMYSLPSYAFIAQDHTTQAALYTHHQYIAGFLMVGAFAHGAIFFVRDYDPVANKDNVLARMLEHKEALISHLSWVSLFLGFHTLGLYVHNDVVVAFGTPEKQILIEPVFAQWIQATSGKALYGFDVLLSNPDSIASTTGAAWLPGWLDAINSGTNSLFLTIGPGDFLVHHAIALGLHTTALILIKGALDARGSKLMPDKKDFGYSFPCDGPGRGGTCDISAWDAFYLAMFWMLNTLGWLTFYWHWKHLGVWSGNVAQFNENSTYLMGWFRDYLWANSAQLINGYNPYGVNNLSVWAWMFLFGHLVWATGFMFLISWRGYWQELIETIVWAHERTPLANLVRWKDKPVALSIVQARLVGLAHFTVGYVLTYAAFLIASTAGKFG

B1: PsbF, beta subunit of Cyt b-559 (natural protein)
chain: not shown
notes: PsbF (cytochrome b-559 beta subunit) of Synechocystis sp; PCC 6803; source: endogenous, Synechocystis sp; PCC 6803 strain His-D2/ΔCP47; co-purified with His-tagged D2 (Ni-NTA, sucrose gradient)
In the case of B1, the binding result with PsaI subunit of PSI is reported as “binds”.

B2: PsbI subunit of PSII (natural protein)
chain: not shown
notes: PsbI of Synechocystis sp; PCC 6803; source: endogenous, Synechocystis sp; PCC 6803 strain His-D2/ΔCP47; co-purified with His-tagged D2 (Ni-NTA, sucrose gradient)
B2: the binding result with PsaB RC subunit of PSI is recorded as “binds”.
